Test results from article PMC5349888, “Thyroid transcription factor FOXE1 interacts with ETS factor ELK1 to co-regulate TERT”.

T1: ELK1-HA (human, UniProt P19419 1-428)
T1 sequence: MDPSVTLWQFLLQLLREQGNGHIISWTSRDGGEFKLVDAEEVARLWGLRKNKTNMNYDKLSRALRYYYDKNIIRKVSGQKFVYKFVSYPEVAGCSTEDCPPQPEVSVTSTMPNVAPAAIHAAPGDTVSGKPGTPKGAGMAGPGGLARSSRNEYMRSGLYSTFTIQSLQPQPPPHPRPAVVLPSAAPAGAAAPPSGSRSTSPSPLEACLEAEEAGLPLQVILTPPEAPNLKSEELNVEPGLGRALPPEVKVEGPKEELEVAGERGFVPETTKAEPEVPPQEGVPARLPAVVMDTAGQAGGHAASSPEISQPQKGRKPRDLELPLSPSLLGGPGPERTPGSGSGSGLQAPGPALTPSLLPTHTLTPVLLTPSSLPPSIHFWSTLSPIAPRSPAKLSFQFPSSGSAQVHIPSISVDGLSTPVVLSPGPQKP

T2: FOXE1-Flag;ELK1-HA (human;human, UniProt O00358;P19419 1-373;1-428, |)
T2 sequence 1: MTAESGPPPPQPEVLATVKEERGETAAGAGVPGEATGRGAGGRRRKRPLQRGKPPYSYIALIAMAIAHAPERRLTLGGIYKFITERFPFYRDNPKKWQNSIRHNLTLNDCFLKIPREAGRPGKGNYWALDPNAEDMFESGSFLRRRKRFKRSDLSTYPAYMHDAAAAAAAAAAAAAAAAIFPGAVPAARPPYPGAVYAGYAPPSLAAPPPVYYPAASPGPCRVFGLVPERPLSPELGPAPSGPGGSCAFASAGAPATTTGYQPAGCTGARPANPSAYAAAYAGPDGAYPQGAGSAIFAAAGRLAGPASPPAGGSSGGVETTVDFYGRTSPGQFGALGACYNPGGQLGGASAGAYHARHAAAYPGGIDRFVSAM
T2 sequence 2: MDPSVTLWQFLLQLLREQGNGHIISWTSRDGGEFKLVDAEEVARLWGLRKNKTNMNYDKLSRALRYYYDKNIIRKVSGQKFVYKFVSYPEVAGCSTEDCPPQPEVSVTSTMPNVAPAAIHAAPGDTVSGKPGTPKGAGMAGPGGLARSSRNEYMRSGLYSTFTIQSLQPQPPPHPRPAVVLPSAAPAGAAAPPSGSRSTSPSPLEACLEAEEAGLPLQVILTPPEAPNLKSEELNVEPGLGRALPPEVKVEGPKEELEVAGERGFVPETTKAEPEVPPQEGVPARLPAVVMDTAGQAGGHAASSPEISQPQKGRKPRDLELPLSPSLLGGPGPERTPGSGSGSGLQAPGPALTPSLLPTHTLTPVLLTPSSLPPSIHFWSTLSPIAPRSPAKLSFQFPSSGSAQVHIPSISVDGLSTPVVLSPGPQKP

T3: FOXE1-Flag (human, UniProt O00358 1-373)
T3 sequence: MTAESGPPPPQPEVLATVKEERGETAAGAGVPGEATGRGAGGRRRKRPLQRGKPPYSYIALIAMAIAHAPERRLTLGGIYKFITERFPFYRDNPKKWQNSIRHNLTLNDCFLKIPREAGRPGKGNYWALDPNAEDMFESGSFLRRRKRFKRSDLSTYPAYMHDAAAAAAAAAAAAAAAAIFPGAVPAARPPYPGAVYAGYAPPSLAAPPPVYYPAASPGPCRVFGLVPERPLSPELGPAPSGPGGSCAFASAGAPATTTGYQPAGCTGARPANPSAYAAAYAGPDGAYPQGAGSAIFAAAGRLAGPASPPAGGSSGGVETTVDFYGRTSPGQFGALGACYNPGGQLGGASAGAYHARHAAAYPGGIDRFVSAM


Tests used:
[1] = molecular target: T1, ELK1-HA; assay: EMSA; ELK1 alone; EMSA: 1 ug protein, 150 mM KCl, 50 ng/uL poly(dI-dC), 10% glycerol, 10 mM Tris pH 7.5, room temperature 30 min; 6% polyacrylamide gel; details: protein: recombinant; tags: HA (pCMV-HA-N); label: 5' biotin; blunt
[2] = molecular target: T2, FOXE1-Flag;ELK1-HA; assay: EMSA; FOXE1 shifts only with ELK1 present; EMSA: 1 ug protein, 150 mM KCl, 50 ng/uL poly(dI-dC), 10% glycerol, 10 mM Tris pH 7.5, room temperature 30 min; 6% polyacrylamide gel; details: protein: recombinant;recombinant; tags: 3xFlag (p3XFlag-CMV-7.1);HA (pCMV-HA-N); copies: 1;1; label: 5' biotin; blunt
[3] = molecular target: T3, FOXE1-Flag; assay: EMSA; positive control; EMSA: 1 ug protein, 150 mM KCl, 50 ng/uL poly(dI-dC), 10% glycerol, 10 mM Tris pH 7.5, room temperature 30 min; 6% polyacrylamide gel; details: protein: recombinant; tags: 3xFlag (p3XFlag-CMV-7.1); label: 5' biotin; blunt

Binder	binding result [1]	binding result [2]	binding result [3]
TERT promoter probe (dsDNA) DNA 1: CCCCGCCCCGTCCCGACCCCTCCCGGGTCCCCGGCCCAGCCCCCTCCGGGCCCTCCCAGCCCCTCCCCTTCCTTTCCGCGGCCCC DNA 2: GGGGCCGCGGAAAGGAAGGGGAGGGGCTGGGAGGGCCCGGAGGGGGCTGGGCCGGGGACCCGGGAGGGGTCGGGACGGGGCGGGG	binds	binds	–
TG promoter K region probe (dsDNA) DNA 1: GAGGGAGTTCCTGTGACTAGCAGAGAAAACAAAGTGAGCCAC DNA 2: GTGGCTCACTTTGTTTTCTCTGCTAGTCACAGGAACTCCCTC	–	–	binds
